Assay results as given in the supplement of paper PMC7125110.
± gives the standard error. Fewer inactive variants are shown than the library holds.

B1: glmS ribozyme (parent)
chain: AUAAAAGCGCCAGAACUACAGAAAUGUAGUUGACGAGGAGGAGGUUUAUCGAAUUUUCGGCGGAUGCCUCCAAA

Variants of: B1
Assay: self-cleavage kobs at 2500 uM GlcN6P; higher = faster cleavage; RNA array
Conditions: with glucosamine-6-phosphate
In short: (§1)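 A hybridised Cy3 probe tracked barcoded ribozyme variants, transcribed in situ by E. coli RNA polymerase on sequenced MiSeq chips, at 37 °C. The variants received 40 μM to 10 mM glucosamine-6-phosphate in HEPES/KCl/Mg(OAc)2 buffer. kobs came from decay fits and kcat and KM from weighted Michaelis–Menten fits.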

Variant | self-cleavage kobs at 2500 uM GlcN6P [s⁻¹]
G29C C61G G62A C70G | 0.000307 ± 0.00012
G35A G38C C58U | < 1e-05
G9C U46A C71U | < 1e-05
A15G A36U G43C | < 1e-05
G13A C50A U69A | 3.87e-05 ± 1.8e-05
A15U A39C U45A | 0.000454 ± 0.00014
A12C C16U G40A | 0.00176 ± 0.00038
G32U G66A C70A | 0.00086 ± 0.00036
C8U A12U A48U G62C U65A | < 1e-05
G9U G63C G66U C70A | < 1e-05
G9A C16G U69A | < 1e-05
A6G G35U G51U C58U | < 1e-05
G62U C68U C71A | < 1e-05
A12U G43U C50U G59A | < 1e-05
A12G C61U C67U C68G | 5.12e-05 ± 2.3e-05
C34U G40A G41C A48C A52G | < 1e-05
C16U U30C G35C U45A U55G G59U | < 1e-05
G37C A42C U69A | < 1e-05
G26U U30A A52G C71G | 0.000299 ± 0.00014
U31A U47C U56C | 0.000498 ± 0.00011
G9C A14U G29C | < 1e-05
A33U G37A U55A C61U | < 1e-05
C11U A12C G32A G41A C68A | < 1e-05

Variant | self-cleavage kobs at 2500 uM GlcN6P [s⁻¹]
A15U A48G G51U | < 1e-05
U30A G41U U55G G59A U69A | < 1e-05
G9C C67A C70G | < 1e-05
G29C U31A | 0.000502 ± 0.0001
C11U G13C U46G A64U | < 1e-05
C16U A39U U46C A64G C71G | 9.88e-05 ± 3.4e-05
A64C C67G C68A | 6.52e-05 ± 1.8e-05
A36C G37A A39C C50U A53C | < 1e-05
A12G C16U G29A G40A A42U U45G | 8.49e-05 ± 2.3e-05
G7A C11U U45C | < 1e-05
A15C A36C G59A U65A | < 1e-05
C8G A14G G32U A64U | < 1e-05
G44A U49C G62U | < 1e-05
G7U U46G A48U | < 1e-05
C8A G37A G41U A48U C50G U55A | < 1e-05
A1U A15G A36U | < 1e-05
A39U A42G A64U | 5.16e-05 ± 2.2e-05
A12G C16U G43A U45C | < 1e-05
A12G A15G G44A U54A C61U | < 1e-05
A14G A42G G44A U55G | 0.000136 ± 4.1e-05
U31C G35A C71U | < 1e-05
C10A G62C C68A | 0.00024 ± 0.00011
A6G A12C U56G | 5.25e-05 ± 2.1e-05

Variant | self-cleavage kobs at 2500 uM GlcN6P [s⁻¹]
C8U G9U A15U G44U | < 1e-05
A15G U45C U65G | 0.000117 ± 3.1e-05
C11G A14G G43U G60C | < 1e-05
G29U C34U U55G C67U | < 1e-05
G43C A53U C58G A64G | < 1e-05
A6C C8G G66A C70U | < 1e-05
C10G G41C G51A C61G | < 1e-05
C8A G40C U47A A64U | < 1e-05
A12C A48G C58G | 4.08e-05 ± 1.8e-05
C10G G37C U49G C68G U69G | 9.24e-05 ± 4.5e-05
C16G A52G U55G | 9.56e-05 ± 4.1e-05
C10G G35A G66A | < 1e-05
A14U G51U G60U | < 1e-05
G32U A48U C67U | < 1e-05
A12G A53U U55G | 0.000166 ± 2.9e-05
G32A U47A C70G | 4.84e-05 ± 2.3e-05
A36G A52U A64G | < 1e-05
G32U A53C U55A | 5.38e-05 ± 1.8e-05
G9C U49A U54A C67A | < 1e-05
G35C G43U U69G | < 1e-05
G38U G40U C70A | < 1e-05
A12C G37U G38U | < 1e-05
A6C A42U G59U | < 1e-05

Variant | self-cleavage kobs at 2500 uM GlcN6P [s⁻¹]
G51U U54G C61U | < 1e-05
A42U U56A U69G | 0.00299 ± 0.00059
C16U U47A C58G | 2.28e-05 ± 1.1e-05
A15U G43U A53U C68U | 8.35e-05 ± 3.5e-05
G51A U56C C70G | < 1e-05
C34U U54G G63U | < 1e-05
U31G U54A C68U | 0.000161 ± 5.7e-05
G37U G43C A48C C61U G63U | < 1e-05
C34A U69A | < 1e-05
C16A G43U A53U G60A C68A | < 1e-05
G13U A36G G38C C50A | < 1e-05
U30G U31C U47C G66A | 2.71e-05 ± 1.2e-05
A12U U47G U65G | 0.00179 ± 0.0004
A14G G41A G62U | < 1e-05
C10U G40A G44C C70A | < 1e-05
A36C G59U G60U C70G | < 1e-05
G32A G35C G44C U56G | < 1e-05
A6C A14U C50G C61G C68G C70U | 0.000499 ± 0.00017
C8A C58A A64C | < 1e-05
G29A U31G U54G | 6.58e-05 ± 3.2e-05
A15U C16G U30A A33G G59A | < 1e-05
G32C G37U C70G | 9.68e-05 ± 4.2e-05
G41U C58A A64G U69A | < 1e-05

Variant | self-cleavage kobs at 2500 uM GlcN6P [s⁻¹]
C11A U54A U55G | 0.000135 ± 4.1e-05
G38C G41U A53C C68G | < 1e-05
U31C A33U U46A U57C C70U C71G | < 1e-05
G35C G44U A52G U54A C67U | < 1e-05
G13C G43C U57G | < 1e-05
G32U G59A C68G | 0.000713 ± 0.00028
G9A G29C G35A G44U U46A A64C | < 1e-05
A6U A15G A53G | 0.000262 ± 4.9e-05
A42U A48G C61A | < 1e-05
G35C U46G U56A | < 1e-05
A14U G32C A52U | < 1e-05
A5U A64U | 8.83e-05 ± 2.8e-05
G35A A42G U45G | < 1e-05
G9U A14G C61A A64G C70G | 6.76e-05 ± 2.1e-05
C11U A15G G37C U47C U69G | 0.000136 ± 5.1e-05
G38C G43C U56G C67A U69A | < 1e-05
A36G U46A C70A | < 1e-05
G66A C67U C70U | 0.000488 ± 0.00017
G44A U49A G62U | < 1e-05
A42G G43A G62U | < 1e-05
A12U A33U G37U U56A | < 1e-05
C11U A12G A15G | 0.000326 ± 8.5e-05
G13U A48U G59C G62U | < 1e-05

Variant | self-cleavage kobs at 2500 uM GlcN6P [s⁻¹]
G29U G32A A53C | 0.000152 ± 3e-05
G7C A36G G37C U56A G66A | < 1e-05
A15G G37U C61A C68A C70G | 4.28e-05 ± 2e-05
A48G C58G G63A C70A | 7.77e-05 ± 3.7e-05
G9U C10G C16U | < 1e-05
G9U A52U C58G | < 1e-05
G9A A14C A15G G35C A39G A52C A53G | < 1e-05
A6C A52U G60A | < 1e-05
A14U A48C U69A | < 1e-05
G44C U46G G63A | < 1e-05
C11U U46A G62U | < 1e-05
G7A G9U A33C U47G | < 1e-05
A6U G32U U57G | < 1e-05
C34U U45G | < 1e-05
A6U C8U A52U C67U C71U | < 1e-05
C16G U30C C34G U55C C61U C67U | < 1e-05
U30G U49G U54A | 4.83e-05 ± 2.3e-05
C16U A39G A48C | 0.000168 ± 5e-05
A6U C16G A36U G41U G43C | < 1e-05
A14G C16G U30G U49C U54A C67G C68U | < 1e-05
A12G U56G G66A | 0.000134 ± 2.5e-05
G29C C34U G35A G40U G59C | < 1e-05
A12C G44C U65C | < 1e-05

Variant | self-cleavage kobs at 2500 uM GlcN6P [s⁻¹]
C58U C61G G66U | 6.41e-05 ± 2.3e-05
A52U C61G C67U | 8.45e-05 ± 3e-05
A14C A33G C34G G37C G60C | < 1e-05
G7C G44C C50U G62A C67U C70U | < 1e-05
A14C A15U C61U C67A | < 1e-05
A39U G51C C71G | < 1e-05
G13U U47G U54A G62A | < 1e-05
C10G A14U G29C U49A A52G C67G | 7.89e-05 ± 2.3e-05
A39U G41U C71A | 4.06e-05 ± 2e-05
A33G A42U U49A G60A | < 1e-05
C10A A36C C50G | 0.000367 ± 0.00015
G37A A53G U55G U65G | 8.03e-05 ± 1.8e-05
C11U G60A G62U C67G | < 1e-05
G29A G35U G41A | < 1e-05
U45C A48U U65A | < 1e-05
C10A U47A C70A | 0.000334 ± 0.00015
C10G U46G U55A A64C U69G | < 1e-05
A14U C16U U47G C58U G60A U69G | 0.000102 ± 2.6e-05
C11U A52C C68U C71G | 0.0003 ± 0.00014
A12C U46A C71A | 6.86e-05 ± 2.4e-05
G7A A12U U31G C70A | < 1e-05
A15G G29U U47G U54A | 0.000248 ± 6.2e-05

Variants of: B1
Assay: self-cleavage kobs at 10000 uM GlcN6P; higher = faster cleavage; RNA array
Conditions: with glucosamine-6-phosphate
In short: as §1

Variant | self-cleavage kobs at 10000 uM GlcN6P [s⁻¹]
U31A U47C U56C | 0.000333 ± 6.1e-05
G29C U31A | 0.000731 ± 0.00017
C11U G13C U46G A64U | < 1e-05
A36C G37A A39C C50U A53C | < 1e-05
A12G C16U G29A G40A A42U U45G | 8.82e-05 ± 1.6e-05
A15C A36C G59A U65A | < 1e-05
A6G A12C U56G | 5.92e-05 ± 1.5e-05
C34U U54G G63U | < 1e-05
C11A U54A U55G | 0.000124 ± 1.8e-05
A6U A15G A53G | 0.000262 ± 5.8e-05
C11U A12G A15G | 0.000749 ± 0.00017
G29U G32A A53C | 0.000364 ± 0.0001
C34U U45G | < 1e-05
C16U A39G A48C | 0.000325 ± 9.5e-05
A14G C16G U30G U49C U54A C67G C68U | < 1e-05
G29C C34U G35A G40U G59C | < 1e-05
U45C A48U U65A | < 1e-05
